# Source: the DeepSol protein solubility set
# Experiment: soluble on expression in E. coli; label from the status in PepcDB or PDB records
row,Sequence,soluble on expression in E. coli
1,MSIISTKYLLQDAQANGYAVPAFNIHNAETIQAILEVCSEMRSPVILAGTPGTFKHIALEEIYALCSAYSTTYNMPLALHLDHHESLDDIRRKVHAGVRSAMIDGSHFPFAENVKLVKSVVDFCHSQDCSVEAELGRLGGVEDDMSVDAESAFLTDPQEAKRFVELTGVDSLAVAIGTAHGLYSKTPKIDFQRLAEIREVVDVPLVLHGASDVPDEFVRRTIELGVTKVNVATELKIAFAGAVKAWFAENPQGNDPRYYMRVGMDAMKEVVRNKINVCGSANRISA,soluble
2,MSIKFELIDVPIPQGTNVIIGQAHFIKTVEDLYEALVTSVPGVKFGIAFCEASGKRLVRHEANDEELRNLAIDLCKKIAAGHVFVIYIRNAWPINVLNAIKNVPEVVRIFAATANPLKVIVAEVEPERRGVVGVVDGHSPLGVETEKDREERKKFLREVVKYKL,soluble
3,MSIPLLEYKPSSQNQRVPGYEVPNEDTPRIYRIEDAAYDSELKELIWATYRQVFSEHVILKFFRQGNLESQLKNRAISVRDFVRGLAKSEAFKTLVIKSNSNYRLVELALKRLLGRAPYNKDEEIAWSIKIATNGWDGFVDALLDSEEYQSNFGENIVPYQRRRYKDRPFNLVTPRYGNYWRDKLESERYIEGDIKNFLELAKSIEIKTVTFTPVSTANIKIPDTTRNTTPTGIPISVNPSANFPVRLEHHHHHH,not soluble
4,MSIQIPRGTQDILPGTVELWQYIEGQAREICRRYNYKEIRTPIFEHTELFLRGVGDTTDIVQKEMYSFQDRGERSLTLRPEGTAPVVRSYVENKMFGDATQPTKLYYIGQMFRYERPQAGRYRQFVQFGIEAIGSNDPAIDAEVIALAVEFYRGMGLKNIKVVLNSLGDAASRQAHRDALIAHFEPRIGEFCSDCQSRLEKNPLRILDCKKDRNHELMGTAPSITEYLNEDSAVYYDKVQELLTMMDVPFEKDPNLVRGLDYYQHTVFEIMSEAEGFGAITTLSGGGRYNGLVQEIGGPEMPGIGFAMSIERLIMALKAENIELPIEHSIDCYVVALGEKAKDHAAKVAFDLRKAGLAVEKDYLDRKMKAQFKSADRLKAKFVAVLGEDELDKGIINLKDMATGEQEEVALDVFASYVAEKLI,soluble
5,MSISQNNFLTMFPVTYTFENGVYSTIINQNTIQTPIPNPIQHHIQNHIQTSIPNTNLLLENVQTDVQKLMVPLIDQQFHIPTSTPLQLAPIPTQIQSQLQPQISQIPIHNQPQIQIQSQVQPQLPTQSQPKPSSKASLDTSSNAFKKYVNPFAPEATVPLPVELEDQYGPYSSSVWKRNERERCRVRNVNDGYERLRKHLPVHFDEKRISKVDTLRLAIRYIKHLDNLLRSELHQYNCKCFNGFQEESEGNILIDISTFNFNSSNNAM,not soluble
6,MSITEDIDDLKTAIENNEPIRKGIEETMHRASQIRIKQRYNCAEQEVTQMRAPFLGFSVFVRFQSRARAHTIKIINEDEVEQMLASSPVPYS,not soluble
7,MSITLSDSAAARVNTFLANRGKGFGLRLGVRTSGCSGMAYVLEFVDEPTPEDIVFEDKGVKVVVDGKSLQFLDGTQLDFVKEGLNEGFKFTNPNVKDECGCGESFKLAAALDHHHHHH,soluble
8,MSIVSISYNQEEYIREALDGFAAQRTEFPVEVIIADDASTDATPRIIGEYAARYPQLFRPILRQTNIGVHANFKDVLSAARGEYLALCEGDDYWTDPLKLSKQVKYLDRHPETTVCFHPVRVIYEDGAKDSEFPPLSWRRDLSVDALLARNFIQTNSVVYRRQPSYDDIPANVMPIDWYLHVRHAVGGEIAMLPETMAVYRRHAHGIWHSAYTDRRKFWETRGHGMAATLEAMLDLVHGHREREAIVGEVSAWVLREIGKTPGRQGRALLLKSIADHPRMTMLSLQHRWAQTPWRRFKRRLSTELSSLAALAYATRRRALEGRDGGYRETTSPPTGRGRNVRGSHA,not soluble
9,MSIYEFDSEEEYATFVNWIEAKKPSITDCSIETFNDDLEDFDRLDEDGLYIEYTRVLLDNLNVTKSMDLMIPTHSSFEFSQDFHLDAVRLRSCFGRNNLFNFHCKEIEVSDSEISSENVNQYLRAWAAGCYNELEKLEVLFYGNENKFDWKPLLQGLNRKRTIYEHNIIDPEVTDETTEVKIETEHPGEFDYYYYKWAKIHRKVDSEGNFYMGMIVN,not soluble
10,MSKADPSKGPAPACPGPDPAPRRPTRYVVPPGAVDTHAHVIGLPPTYPFVDARSYTPPAATPESYLAMLDATGMTYGVVVQVSVHGTDNRLMLETLQAHRDRLKGIAVIPLGLPDKELAALKDAGVVGLRLNILYGGGIGFERVGEYAAMAKELGWHLQFLIDAKDLVPLAPQLGGLPVPFIVDHWGHFPVSRGIDDPGFQTLVSLVRDGAWVKLSGAYRNTVAGFPYLDTIPFARLLHETAPDRCVWGSDWPHVATWQHMMNVGELLDLLADWVPDAAARDRVFTDNAYRLYGFTPVQGLEHHHHHH,not soluble
11,MSKAVIDTGVFVDYIDRKSPLHDVARNVINSIGQLEVLLPYVTIAEICYVTARVLREAGIEEWLEKSVEFVEWLQRHPAVEVVCSTELDVEAAKVKLRYGLALADCYVLALSKLKNCKAVFRKREKEMPDKVEKDFDVIFLEDYVGGDR,not soluble
12,MSKDAKSPKKLRSNRAALTHKVGYALRHPERVGPYVRRAGRDAWLRVKHPDHVGYYRAVMASDARRSPEAAVGSRTHDRWLALGQMQFDYLVEHGLRPGHRMLDIGCGNLRGGWRFIDHLDSGHYYGVDISPDILIAAKKTLTERGLQAKLPHLTITGDLRLEFLPDDHFDVVHAHSVFSHSPLNVIDECLAHVGRVLTDTGFFDFTFDRTEGTEHQVLREDFYYRTDTLLTLAAQHNLHARFMEDWEKRPHGQSKIRVSRSPLPSLEHHHHHH,not soluble
13,MSKEDFVIKPEAAGASTDTSEWPLLLKNFDKLLVRSGHYTPIPAGSSPLKRDLKSYISSGVINLDKPSNPSSHEVVAWIKRILRCEKTGHSGTLDPKVTGCLIVCIDRATRLVKSQQGAGKEYVCIVRLHDALKDEKDLGRSLENLTGALFQRPPLISAVKRQLRVRTIYESNLIEFDNKRNLGVFWASCEAGTYMRTLCVHLGMLLGVGGHMQELRRVRSGALSENDNMVTLHDVMDAQWVYDNTRDESYLRSIIQPLETLLVGYKRIVVKDSAVNAVCYGAKLMIPGLLRYEEGIELYDEIVLITTKGEAIAVAIAQMSTVDLASCDHGVVASVKRCIMERDLYPRRWGLGPVAQKKKQMKADGKLDKYGRVNENTPEQWKKEYVPLDNAEQSTSSSQETKETEEEPKKAKEDSLIKEVETEKEEVKEDDSKKEKKEKKDKKEKKEKKEKKDKKEKKEKKEKKRKSEDGDSEEKKSKKSKK,not soluble
14,MSKGASAPQQQSAFKQLYTELFNNEGDFSKVSSNLKKPLKCYVKESYPHFLVTDGYFFVAPYFTKEAVNEFHAKFPNVNIVDLTDKVIVINNWSLELRRVNSAEVFTSYANLEARLIVHSFKPNLQERLNPTRYPVNLFRDDEFKTTIQHFRHTALQAAINKTVKGDNLVDISKVADAAGKKGKVDAGIVKASASKGDEFSDFSFKEGNTATLKIADIFVQEKGKDALNKAADHTDGAKVKGGAKGKGKAAAKAAKGKKLSAKKGDSSAADVRKSVDKIVKYTPSKGSRKDTPQKSQAPAAGKSSAKKGGKKAVPSAPSPSGKKSALTTDKMTMAQFVKYLDWHEKKKGGKVSSGGKVLGKRSAGKASATSGKASKASKKTAAKK,soluble
15,MSKGEKMKIKVGVLGATGSVGQRFVQLLADHPMFELTALAASERSAGKKYKDACYWFQDRDIPENIKDMVVIPTDPKHEEFEDVDIVFSALPSDLAKKFEPEFAKEGKLIFSNASAYRMEEDVPLVIPEVNADHLELIEIQREKRGWDGAIITNPNCSTICAVITLKPIMDKFGLEAVFIATMQAVSGAGYNGVPSMAILDNLIPFIKNEEEKMQTESLKLLGTLKDGKVELANFKISASCNRVAVIDGHTESIFVKTKEGAEPEEIKEVMDKFDPLKDLNLPTYAKPIVIREEIDRPQPRLDRNEGNGMSIVVGRIRKDPIFDVKYTALEHNTIRGAAGASVLNAEYFVKKYI,soluble
16,MSKIKRVLISVSDKTGIIEFAKELSKYNIEILSTGGTSKTLKDAGINVIDVSEHTQFPEIMNGRVKTLHPLIHGGILADRDNPEHLDAMLKNHIGQIDMVVVNLYPFVNTVKSGADFDTCIENIDIGGPSMVRSCAKNHKHTTIVTNPSQYDLVIKEMAENDGKTTLATRREFAKEAFAHTAEYDSHIANWFSKELDEEYPEKLFSVGTLKQVLRYGENPHQKAAVYSTDADCVSITNARQLQGKELSYNNLNDADGAFEMVCEYSEPSCAIIKHANPCGIASGKNAFEAWTKALACDPISAFGGIVAFNCEVDKEFAESLGKMFLEVIIAPSYTQEALDILAAKKNLRVLETGKVFDTKSSRMISKNIHGGILSQSYDNGGVDINDCKVVTDRAPTDKEWADLMFAWKAVKYVKSNAIVYARDTQTVGIGAGQMSRVDSARIGAEKAQAHQGAKGSAVASDAFFPFADGLEECIKAGATAVIQPGGSKNDQEVIDAANKAGITMVFTNMRHFRH,not soluble
17,MSKKPTSAYVHIPFCTQICYYCDFSKVFIKNQPVDAYLEALIKEFNDYYQIKDLQTLYIGGGTPTAISGEQLDYLLTNLSKNLNLNMLEEFTIEANPGDLTPDKVAVLKQSAVNRVSLGVQTFNNKHLKQIGRGHNEAQIYESIDSLKSAGFDNISIDLIYALPNQTITDVKENVAKALALDIPHLSLYNLILEHHTVFMNKMRRGKLNLPAEDLEAEMFDYIISEMEDHGFEHYEISNFTKPGFESRHNLMYWNNAEYFGCGAGASGYVDGIRYRNRGPIQHYLKAIKEKRQARFQEERLSQSEKMEEELFLGLRKKSGISIQRFEDKFGLPLMEVYGQAIDDLEKDGLILVEKDCIRMSKKGLFLGDTVAEKFILEQK,not soluble
18,MSKKVAILVDGDFFIRCYKSHLKKQPEDLNPKKLAHHIHTYCLKHINKKNDEELYRIFFYDCKPLKKKAHYPYTQKALDLSKSPTYREREELHEHLISKPCLALRLGYLDEKNARWVIRDQEKEKKLFNRRISIEEFQNDDFIYHAKQKGVDIKIGLDIATLALKKLVQKIVLISGDSDFVPASKLARVEGIIFTLDPMGNHIREDLKEHIDYLTTRLPQFKQQ,soluble
19,MSKNDHRITHNKSDKDNLDDDFSLFRDEVKGVKKLRQDTILHAPNRNPKQKEIRRTEREASDNDFYFSDEFMPHLTDEGPTRYARSDVSKYEVKRLRRGVYVPDVFLDMHGMTQQEAKRELGAMIAYCLKENVHCACVQHGIGKHILKQNVPLWLAQHPDVLAFHQAPLEFGGDGALLVLLSIPEK,not soluble
20,MSKVLVLKSSILAGYSQSGQLTDYFIEQWREKHVADEITVRDLAANPVPVLDGELVGAMRPGDAPLTPRQQDALALSDELIAELKAHDVIVIAAPMYNFNIPTQLKNYFDLIARAGITFRYTEKGPEGLVTGKRAVVLSSRGGIHKDTPTDLIAPYLKVFLGFIGITDVNFVFAEGIAYGPEVAAKAQADAKAAIDSVVAA,soluble
21,MSKWLNVGKIVNTHGVRGEVRVLSTTDFEDDRFSSGKTLYVMRPNQNERVAVTVASHRKHKNFDLLCFEGYPSINDVEAFKGGRLQVPIEDRPELGEGEFFYHEIIGCSVVTIAGEELGKVKEILSPGANDVWVVQCRRGGKDLLIPYIEQVVKQVDLEKQQITIEPMEGLLEAAALEHHHHHH,soluble
22,MSKYNAKKVEYKGIVFDSKVECEYYQYLESNMNGTNYDHIEIQPKFELLPKLDKQRKIEYIADFALYLDDKLIEVIDIKGMPTEVAKLKAKIFRHKYRNIKLNWICKAPKYTGKTWITYEELIKARRERKREMK,not soluble
23,MSLAAGKHTKHSNRVRIIGGQCRGRKLSFTSADGLRPTPDSVREKLFNWLGQDLTGKTVLDLFGGSGALGIEAASRNAKRVLISDNNRQTVQTLQKNSRELGLGQVQIVFSDGIAYLKTVSEQFDVVFLDPPFAWQDWQILFDALKPCLNPRAFVYLEAGTLPNIPDWLTEYREGKSGQSTFELRVFQVAEEGHHHHHH,soluble
